This note sets out measurements from US20080102072A1.

Some results are limits rather than exact numbers.

For orientation: Kd means the constant that tells how readily two partners part at equilibrium. Higher therefore signals weaker binding.

The target of experiment [1] is human IFNAR1, membrane receptor on cells (U266 human myeloma cells; Hela and A549 cells in the functional assays) (human) (UniProt P17181). The experiment can be described thus: flow cytometry on U266 cells, fluoresceinated mAb 1 µg/100 µl, no soluble hIFNAR1.
Sequence of UniProt P17181 (P17181 28-557): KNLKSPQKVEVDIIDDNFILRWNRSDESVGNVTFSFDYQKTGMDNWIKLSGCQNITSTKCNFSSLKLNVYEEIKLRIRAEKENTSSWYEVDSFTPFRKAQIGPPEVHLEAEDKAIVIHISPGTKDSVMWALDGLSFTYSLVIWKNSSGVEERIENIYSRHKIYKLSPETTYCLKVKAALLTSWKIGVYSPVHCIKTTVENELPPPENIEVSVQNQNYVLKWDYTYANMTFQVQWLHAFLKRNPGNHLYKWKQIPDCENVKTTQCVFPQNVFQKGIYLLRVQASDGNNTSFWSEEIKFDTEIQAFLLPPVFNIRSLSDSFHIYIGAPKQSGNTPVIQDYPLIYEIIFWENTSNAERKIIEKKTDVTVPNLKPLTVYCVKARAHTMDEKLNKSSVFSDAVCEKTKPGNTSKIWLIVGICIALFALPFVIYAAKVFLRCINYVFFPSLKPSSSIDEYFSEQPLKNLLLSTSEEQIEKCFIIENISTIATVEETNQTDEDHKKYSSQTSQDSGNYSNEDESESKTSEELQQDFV
For experiment [2] the target is unchanged. Put plainly: cell-based or functional assay.
Experiment [3] has the same target. Put plainly: flow cytometry on U266 cells, F-mAb preincubated with competitor: 10 µg soluble wild type hIFNAR1-IgG. Background: A flow cytometer gives signals particle by particle.
Experiment [4] concerns the target IFNAR1-IgG single alanine mutant K247A (human). Put plainly: capture ELISA, single alanine mutant IFNAR1-IgG captured by goat anti-hIgG-Fc; OD as % of wild type IFNAR1-IgG. In general terms: In an ELISA, binding on a coated surface is turned into a signal by an enzyme label.
Experiment [5] has as its target IFNAR1-IgG single alanine mutant D296A (human). Described as above.
The target of experiment [6] is IFNAR1-IgG single alanine mutant K72A (human). The experiment is described as above.
Sequence of IFNAR1-IgG single alanine mutant K72A (human) (chain, as listed by the source K72A K72A limits assumed): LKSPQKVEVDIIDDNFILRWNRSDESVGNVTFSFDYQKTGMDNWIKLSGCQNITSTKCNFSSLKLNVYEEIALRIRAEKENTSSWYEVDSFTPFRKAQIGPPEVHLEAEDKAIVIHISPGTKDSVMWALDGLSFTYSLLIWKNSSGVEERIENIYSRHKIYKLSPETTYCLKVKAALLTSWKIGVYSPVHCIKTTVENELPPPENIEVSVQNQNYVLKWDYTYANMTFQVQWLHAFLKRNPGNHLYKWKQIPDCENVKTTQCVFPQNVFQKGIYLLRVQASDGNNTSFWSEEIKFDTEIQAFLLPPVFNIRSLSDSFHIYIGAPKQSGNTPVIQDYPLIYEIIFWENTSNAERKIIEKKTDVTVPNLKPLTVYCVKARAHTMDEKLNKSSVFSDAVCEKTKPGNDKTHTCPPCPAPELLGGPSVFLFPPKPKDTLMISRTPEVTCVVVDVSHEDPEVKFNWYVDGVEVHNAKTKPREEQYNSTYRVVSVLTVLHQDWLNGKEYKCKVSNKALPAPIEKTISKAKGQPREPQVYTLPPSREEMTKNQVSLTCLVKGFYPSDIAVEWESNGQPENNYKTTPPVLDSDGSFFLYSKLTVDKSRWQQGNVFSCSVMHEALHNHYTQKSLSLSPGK
In experiment [7] the target is IFNAR1-IgG single alanine mutant R74A (human). The experiment is described as above.
Experiment [8] deals with IFNAR1-IgG single alanine mutant E298A (human). Described as above.
Experiment [9] addresses IFNAR1-IgG single alanine mutant H244A (human). The description is as above.
For experiment [10], the target named is IFNAR1-IgG single alanine mutant E70A (human). The description is as above.
Sequence of IFNAR1-IgG single alanine mutant E70A (human) (chain, as listed by the source E70A E70A limits assumed): as the sequence (chain, as listed by the source K72A K72A limits assumed) above, with E70A, A72K counted along it
Experiment [11] addresses IFNAR1-IgG single alanine mutant E292A (human). The experiment is described as above.
Experiment [12] deals with IFNAR1-IgG single alanine mutant K249A (human). The experiment is described as above.
For experiment [13], the target named is IFNAR1-IgG single alanine mutant E69A (human). Described as above.
Sequence of IFNAR1-IgG single alanine mutant E69A (human) (chain, as listed by the source E69A E69A limits assumed): as the sequence (chain, as listed by the source K72A K72A limits assumed) above, with E69A, A72K counted along it
Experiment [14] addresses IFNAR1-IgG single alanine mutant E291A (human). The description is as above.
In experiment [15] the target is IFNAR1-IgG single alanine mutant K294A (human). The experiment is described as above.
For experiment [16], the target named is human IFNAR1, membrane receptor on cells (U266 human myeloma cells; Hela and A549 cells in the functional assays) (human) (UniProt P17181). The experiment can be described thus: flow cytometry on U266 cells, F-mAb preincubated with competitor: 10 µg soluble hIFNAR1-IgG Mutant #8 (291-298).
Experiment [17] shares this target. The experiment can be described thus: flow cytometry on U266 cells, F-mAb preincubated with competitor: 10 µg soluble hIFNAR1-IgG Mutant #7 (244-249).
Experiment [18] deals with IFNAR1-IgG multiple alanine mutant 1, residues 19-25 (RWNRSDE to AWNASAA) (human). The experiment can be described thus: capture ELISA, mutant IFNAR1-IgG captured by goat anti-hIgG-Fc, mAb 10 µg/ml; OD as % of wild type IFNAR1-IgG.
Experiment [19] deals with IFNAR1-IgG multiple alanine mutant 10, residues 383-388 (DEKLNK to AAALNA) (human). Described as above.
Experiment [20] concerns the target IFNAR1-IgG multiple alanine mutant 8, residues 291-298 (EEIKFDTE to AAIAFATA) (human). Described as above.
The target of experiment [21] is IFNAR1-IgG multiple alanine mutant 9, residues 352-359 (ERKIIEKK to AAAIIAAA) (human). The experiment is described as above.
Experiment [22] has as its target IFNAR1-IgG multiple alanine mutant 7, residues 244-249 (HLYKWK to ALYAWA) (human). The description is as above.
Experiment [23] deals with IFNAR1-IgG multiple alanine mutant 3, residues 76-80 (RAEKE to AAAAA) (human). Described as above.
Experiment [24] concerns the target IFNAR1-IgG multiple alanine mutant 6, residues 157-162 (RHKIYK to AAAIYA) (human). The experiment is described as above.
Experiment [25] concerns the target IFNAR1-IgG multiple alanine mutant 2, residues 69-74 (EEIKLR to AAIALA) (human). The description is as above.
For experiment [26], the target named is IFNAR1-IgG multiple alanine mutant 5, residues 148-152 (EERIE to AAAIA) (human). Described as above.
In experiment [27] the target is IFNAR1-IgG multiple alanine mutant 4, residues 103-111 (… to …) (human). Described as above.
Experiment [28] addresses hIFNAR1 ECD-IgG fusion protein (immunoadhesin, pRK5 hIFNAR1-IgG clone 53.65), wild type (human). Put plainly: competitive radioimmunoprecipitation with 125I-hIFNAR1-IgG and unlabeled hIFNAR1-IgG, Scatchard analysis.
Experiment [29] deals with human IFNAR1, membrane receptor on cells (U266 human myeloma cells; Hela and A549 cells in the functional assays) (human) (UniProt P17181). The experiment can be described thus: flow cytometry on U266 cells, fluoresceinated control IgG, no soluble hIFNAR1.

Sequence of hIFNAR1 ECD-IgG fusion protein (immunoadhesin, pRK5 hIFNAR1-IgG clone 53.65), wild type (human) (chain, as listed by the source limits assumed): as the sequence (chain, as listed by the source K72A K72A limits assumed) above, with A72K counted along it
Sequence of IFNAR1-IgG multiple alanine mutant 6, residues 157-162 (RHKIYK to AAAIYA) (human) (chain, as listed by the source mutant limits assumed): as the sequence (chain, as listed by the source K72A K72A limits assumed) above, with A72K, R157A, H158A, K159A, K162A counted along it
Sequence of IFNAR1-IgG single alanine mutant D296A (human) (chain, as listed by the source D296A D296A limits assumed): as the sequence (chain, as listed by the source K72A K72A limits assumed) above, with A72K, D296A counted along it
Sequence of IFNAR1-IgG single alanine mutant K247A (human) (chain, as listed by the source K247A K247A limits assumed): as the sequence (chain, as listed by the source K72A K72A limits assumed) above, with A72K, K247A counted along it

For “anti-hIFNAR1 monoclonal antibody 2E8 (hybridoma ATCC HB 12130)”, the Mean Fluorescence Intensity was determined as 7.96 in experiment [1], 3.16 in [3], 7.6 in [16] and 3.27 in experiment [17]. In addition, the EC50 of mAb neutralizing the anti-viral cytopathic effect of 10 units/ml IFNα1 on A549 cells (EMC virus) in experiment [2] is over 30 µg/mL. This substance also gave an EC50 of mAb neutralizing the anti-viral cytopathic effect of 10 units/ml IFNα2/1 on A549 cells (EMC virus) in experiment [2] of over 30 µg/mL. This substance also registered an EC50 of mAb neutralizing the anti-viral cytopathic effect of 10 units/ml IFNα2 on A549 cells (EMC virus) in experiment [2] of over 30 µg/mL. This substance showed an EC50 of mAb neutralizing the anti-viral cytopathic effect of 10 units/ml IFNα5 on A549 cells (EMC virus) in experiment [2] of over 30 µg/mL. The EC50 of mAb neutralizing the anti-viral cytopathic effect of 10 units/ml IFNα8 on A549 cells (EMC virus) in [2] is over 30 µg/mL. In [2], this substance showed an EC50 of mAb neutralizing the anti-viral cytopathic effect of 10 units/ml IFNβ on A549 cells (EMC virus) of over 30 µg/mL. The % Wild type binding of mAbs is 66% in [4]; 3% in experiment [5]; 89% in experiment [6]; 53% in experiment [7]; 31% in experiment [8]; 96% in [9]. For the same substance, the % Wild type binding of mAbs stood at 80% in experiment [10]; 29% in experiment [11]; 54% in experiment [12]; 72% in [13]; 3% in [14]; 54% in experiment [15]. Besides, the % Wild type binding of mAbs in experiment [18] is 84%; in experiment [19], 116%; in [20], 0%; in [21], 81%; in experiment [22], 77%; in [23] it was 69%. In addition, the % Wild type binding of mAbs in experiment [24] is 77%; in [25], 18%; in experiment [26], 43%; in experiment [27], 33%. This substance also displayed a Kd in experiment [28] of 0.097 nM.

Consider “anti-hIFNAR1 monoclonal antibody 4A7 (hybridoma ATCC HB 12132)”, for which the Mean Fluorescence Intensity was 9.49 in experiment [1], 2.45 in experiment [3], 3.16 in [16] and 2.95 in experiment [17]. In [2], this substance gave an EC50 of mAb neutralizing the anti-viral cytopathic effect of 10 units/ml IFNα1 on A549 cells (EMC virus) of 10 µg/mL. Also, in [2], the EC50 of mAb neutralizing the anti-viral cytopathic effect of 10 units/ml IFNα2/1 on A549 cells (EMC virus) stood at 20 µg/mL. The substance further came in with an EC50 of mAb neutralizing the anti-viral cytopathic effect of 10 units/ml IFNα2 on A549 cells (EMC virus) in [2] of 10 µg/mL. This substance also yielded an EC50 of mAb neutralizing the anti-viral cytopathic effect of 10 units/ml IFNα5 on A549 cells (EMC virus) in experiment [2] of 6 µg/mL. In [2], the EC50 of mAb neutralizing the anti-viral cytopathic effect of 10 units/ml IFNα8 on A549 cells (EMC virus) came out at 3 µg/mL. For the same substance, the EC50 of mAb neutralizing the anti-viral cytopathic effect of 10 units/ml IFNβ on A549 cells (EMC virus) in [2] was over 30 µg/mL. The % Wild type binding of mAbs in experiment [4] was determined as 86%; in experiment [5], 53%; in [6], 91%; in [7], 30%; in experiment [8], 60%; in experiment [9], 96%. For the same substance, the % Wild type binding of mAbs in experiment [10] was determined as 85%; in experiment [11], 58%; in experiment [12], 73%; in experiment [13] it was 69%; in experiment [14], 58%; in [15] it was 69%. Also, the % Wild type binding of mAbs in experiment [18] is 95%; in [19], 103%; in [20] it was 96%; in [21], 101%; in experiment [22] it was 106%; in experiment [23], 92%. In addition, the % Wild type binding of mAbs in experiment [24] amounted to 100%; in experiment [25] it was 0%; in experiment [26], 90%; in experiment [27], 80%. In addition, the Kd in experiment [28] was 0.052 nM.

Turning to control IgG (antibody), the Mean Fluorescence Intensity in experiment [29] amounted to 2.99.
